Reference: patent publication US20090092555A1 (published 2009)

Assays:
[1] = target: T1, PlyCA (heavy chain of the streptococcal C1 bacteriophage lysin PlyC) (streptococcal C1 bacteriophage, UniProt Q7Y3F1 2-465); test: native PAGE against SDS/PAGE (two bands, PlyCA and PlyCB); N-terminal sequencing of the native band gives both chains
T1 construct: One PlyCA for eight PlyCB in the holoenzyme (about 114 kDa by gel filtration); also called PlyC heavy chain; plyCA gene product
T1 sequence (looked up): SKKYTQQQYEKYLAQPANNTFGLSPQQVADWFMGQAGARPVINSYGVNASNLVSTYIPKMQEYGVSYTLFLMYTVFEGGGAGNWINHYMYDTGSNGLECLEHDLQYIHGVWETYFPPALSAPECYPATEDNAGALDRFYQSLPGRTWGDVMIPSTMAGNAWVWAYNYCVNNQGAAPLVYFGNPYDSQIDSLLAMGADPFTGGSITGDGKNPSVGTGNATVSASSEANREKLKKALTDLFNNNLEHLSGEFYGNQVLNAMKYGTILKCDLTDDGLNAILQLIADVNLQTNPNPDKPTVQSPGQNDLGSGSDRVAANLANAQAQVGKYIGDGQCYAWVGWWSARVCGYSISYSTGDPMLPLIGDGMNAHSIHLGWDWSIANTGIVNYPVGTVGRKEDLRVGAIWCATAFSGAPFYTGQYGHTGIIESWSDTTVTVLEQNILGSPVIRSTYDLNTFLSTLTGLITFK
Description: PlyC Consists of a Heavy Chain (PlyCA) and a Light Chain (PlyCB)—PlyC purified from C₁ bacteriophage lysates behaves as a homogeneous protein on native-gel electrophoresis (FIG. 1A). Moreover, this protein band is responsible for the lytic activity, as observed by formation of a clearing zone on an overlay of streptococci-embedded agarose (FIG. 1B). […] N-terminal sequencing of the PlyC heavy and light chains results in two unique sequences ([…] and […], respectively), and sequencing of the native band results in a dual sequence, which corresponds exactly to both chains.
Expression and Purification of the PlyC Clone—PlyC is induced with 0.5% arabinose overnight from XL1-blue/pBAD24::plyC cultures. Cells are washed in 20 mM phosphate buffer at pH 7.0 and are lysed with 20% wt/vol chloroform to yield crude PlyC. Alternatively, group C streptococci are infected with the C1 bacteriophage as previously described (Nelson et al., 2001), and phage-produced PlyC are isolated from the crude lysate. Purification of the phage-derived enzyme and the recombinant enzyme are identical to previously described methods (Nelson et al., 2001). Purified enzymes are routinely stored in PBS at 4° C. and are stable for several months. Purification of the individually expressed heavy and light chains use the same column-chromatography methods as the native enzyme. […]

[2] = target: the molecule itself; test: gel filtration, with and without 0.1% SDS
[3] = target: the molecule itself; test: Superose 12 gel filtration
Description: N-terminal Deletion—The Del-8 mutant lacks the first 8 N-terminal amino acids of PlyCB but retains full binding activity. Formation of a stable octamer is confirmed by comparing the elution profile of the Del-8 PlyCB mutant on a Superose 12 gel to Bio-Rad gel filtration standards. Accordingly, the N-terminal region can be completely deleted and not affect formation of the stable octamer. Given the non-structural role of this sequence, this region can be modified or engineered.

B1: PlyCB octamer (wild-type) (other)
chain: SKINVNVENVSGVQGFLFHTDGKESYGYRAFINGVEIGIKDIETVQGFQQIIPSINISKSDVEAIRKAMKK
notes: Ring of eight identical PlyCB monomers, about 64 kDa; the partner of PlyCA in the PlyC holoenzyme; also called octameric protein
B1: binds [1].

B2: PlyCB monomer (wild-type, light chain of the streptococcal C1 bacteriophage lysin PlyC) (other)
chain: SKINVNVENVSGVQGFLFHTDGKESYGYRAFINGVEIGIKDIETVQGFQQIIPSINISKSDVEAIRKAMKK
notes: also called PlyC light chain; plyCB gene product
B2: binds [2].

B3: Del-8 PlyCB mutant (8 amino acid N-terminal deletion of PlyCB), monomer (other)
chain: NVSGVQGFLFHTDGKESYGYRAFINGVEIGIKDIETVQGFQQIIPSINISKSDVEAIRKAMKK
notes: Monomer, used for the entry on self-assembly into the octamer; also called N-terminal deletion variant of PlyCB
B3: binds [3].
